Assay results reported in patent US5130300A, “Method for enhancing growth of mammary parenchyma” (Monsanto Company, priority 1987, dated 1992).

Assays:
[1] = test system: Quarter-Udders in Pregnant Beef Cattle; assay: Intramammary infusion of ovine prolactin, quarter-udder weights and DNA (Comparative Examples); format: in vivo, cross-bred beef cows
Procedure: 16 pregnant, non-lactating, cross-bred beef cows in their last 30-105 days of gestation were divided into 2 groups and tested for the effects of intramammary infusion using the procedures of Examples 25-28 except that instead of a prostaglandin, each treatment infusion contained either 2 mg (Group 1) or 10 mg (Group 2) of ovine prolactin obtained from Sigma Chemical Co., St. Louis, Mo. (Lot No. 26F-0076) in 10 ml of an emulsion of 0.9% saline containing 0.5% Tween-20 in sterile sesame oil containing 5% Arlacel A (3:2 oil: saline). Results are in Tables 22-23.

[2] = test system: Quarter-Udders in Pregnant Holstein Heifers; assay: Intramammary infusion, milk production per udder side in first 30 days after parturition (Examples 23-24, 42-43); format: in vivo
Procedure: 18 pregnant Holstein heifers within their last 40-60 days of expected calving were housed in a free-stall facility, fed a ration of alfalfa hay and pelleted concentrate and administered 10 ml of an excipient (sterile sesame oil) into each quarter-udder by intramammary infusion through the steak canal every third day for the number of treatments shown below. The heifers in Groups 1 and 3 were treated no later than their fifth day before parturition; treatments of those in Groups 2 and 4 were continued into their last five days. Treatments containing a mitogenic substance were administered to both quarter-udders on one side of each animal. Excipient only was administered to both quarter-udders on the opposite side of that animal. All infusions were carried out with a Jorgensen laboratories infusion canula of the kind used in Examples 1-2. Each teat was sprayed with 70% ethanol and wiped dry prior to treatment, and dipped with an iodine solution following treatment. These animals were milked normally each a.m. and p.m. for the first 30 days after parturition, with milk production recorded separately for each quarter-udder. […] Shown in Table 21 are the milk production results obtained with the heifers of Group 3 in Examples 23-24. On average, milk production by the half-udders that had been treated in Group 4 of Examples 23-24 slightly exceeded (2%, p<0.4) that of their control half-udders.

[3] = test system: Quarter-Udders in Pregnant Beef Cows; assay: Intramammary infusion of BST, quarter-udder weights and DNA (Examples 40-41); format: in vivo, cross-bred beef cows; conditions: for DNA, % Increase, (A-B)/B / DNA, Mean Increase (A-B) / Dry Fat-Free Weight, % Increase, (A-B)/B / Dry Fat-Free Weight, Mean Increase (A-B) / Dry Weight, % Increase, (A-B)/B / Dry Weight, Mean Increase (A-B) / Wet Weight, % Increase, (A-B)/B / Wet Weight, Mean Increase (A-B): B = excipient only
Procedure: 24 pregnant, non-lactating, cross-bred beef cows in their last 40-80 days of gestation were divided into 2 groups and tested for the effects of intramammary infusion using the procedures of Examples 3-6 except that (A) the volume of excipient in each infusion was 5 ml and (B) each treatment infusion contained a 1% zinc salt of an N-methionyl bovine somatotropin (BST) (Group 1-100 mg; Group 2-40 mg) prepared by expression of recombinant DNA and purified essentially as described in Example 1A of U.S. Patent Appln. No. 787,873 filed Oct. 16, 1985 based on European Patent Appln. No. 177,478 published Apr. 9, 1986, both incorporated here by reference. Results are in Tables 19-20.

[4] = Group 1: total of 10 milligrams (2 mg per infusion)
[5] = Group 1: total of 10 milligrams, B = control mean
[6] = Group 2: total dose of 50 milligrams (10 mg per infusion)
[7] = Group 2: total dose of 50 milligrams, B = control mean
[8] = Group 1: total of 500 milligrams BST
[9] = Group 1: total of 500 milligrams BST (100 mg per infusion)
[10] = Group 2: total of 200 milligrams BST
[11] = Group 2: total of 200 milligrams BST (40 mg per infusion)

B1: Ovine Prolactin: ovine prolactin from Sigma Chemical Co. (Lot No. 26F-0076), comparative example (protein, UniProt P01240 31-229, looked up)
Prolactin: TPVCPNGPGNCQVSLRDLFDRAVMVSHYIHNLSSEMFNEFDKRYAQGKGFITMALNSCHTSSLPTPEDKEQAQQTHHEVLMSLILGLLRSWNDPLYHLVTEVRGMKGVPDAILSRAIEIEEENKRLLEGMEMIFGQVIPGAKETEPYPVWSGLPSLQTKDEDARHSAFYNLLHCLRRDSSKIDTYLKLLNCRIIYNNNC
DNA, Treatment Mean [1, 4]: 2526 mg | Dry Fat-Free Weight, Treatment Mean [1, 4]: 137.8 g | Dry Weight, Treatment Mean [1, 4]: 262.7 g | Wet Weight, Treatment Mean [1, 4]: 895.3 g | Dry Fat-Free Weight, % Increase, (A-B)/B [1, 5]: .88% | Dry Fat-Free Weight, Mean Increase (A-B) [1, 5]: 1.2 g | Dry Weight, % Increase, (A-B)/B [1, 5]: 1.0% | Dry Weight, Mean Increase (A-B) [1, 5]: 4.8 g | Wet Weight, % Increase, (A-B)/B [1, 5]: .6% | Wet Weight, Mean Increase (A-B) [1, 5]: 5.4 g | DNA, Treatment Mean [1, 6]: 3672 mg | Dry Fat-Free Weight, Treatment Mean [1, 6]: 189.2 g | Dry Weight, Treatment Mean [1, 6]: 343.4 g | Wet Weight, Treatment Mean [1, 6]: 1487.1 g | DNA, % Increase, (A-B)/B [1, 7]: 10.5% | DNA, Mean Increase (A-B) [1, 7]: 350 mg | Dry Fat-Free Weight, % Increase, (A-B)/B [1, 7]: 2.5% | Dry Fat-Free Weight, Mean Increase (A-B) [1, 7]: 4.7 g | Wet Weight, % Increase, (A-B)/B [1, 7]: 13.6% | Wet Weight, Mean Increase (A-B) [1, 7]: 178.6 g

B2: BST: N-methionyl bovine somatotropin prepared by expression of recombinant DNA (protein, UniProt P01246 27-217, looked up)
Somatotropin: AFPAMSLSGLFANAVLRAQHLHQLAADTFKEFERTYIPEGQRYSIQNTQVAFCFSETIPAPTGKNEAQQKSDLELLRISLLLIQSWLGPLQFLSRVFTNSLVFGTSDRVYEKLKDLEEGILALMRELEDGTPRAGQILKQTYDKFDTNMRSDDALLKNYGLLSCFRKDLHKTETYLRVMKCRRFGEASCAF
modifications: N-terminal Met
notes: N-methionyl bovine somatotropin prepared by expression of recombinant DNA
Average Milk Production, Treated Side (A) ([2]; BST 50 mg per infusion every third day, no later than fifth day before parturition (Group 3 per text), first 30 days after parturition): 10.9 kg/day | Average Milk Production, % Increase, (A-B)/B ([2]; BST 50 mg per infusion, no later than fifth day before parturition (Group 3 per text), B = control side, excipient only): 11% | Milk production of treated half-udders in excess of control half-udders ([2]; Group 4: BST 50 mg per infusion, treatments continued into last five days before parturition): 2% | DNA, Avg. % Increase/Animal [3, 8]: 10.5% | Dry Fat-Free Weight, Avg. % Increase/Animal [3, 8]: 7.9% | Dry Weight, Avg. % Increase/Animal [3, 8]: 10.7% | Wet Weight, Avg. % Increase/Animal [3, 8]: 9.8% | DNA, Treatment Mean [3, 9]: 2185 mg | Dry Fat-Free Weight, Treatment Mean [3, 9]: 146.7 g | Dry Weight, Treatment Mean [3, 9]: 207.6 g | Wet Weight, Treatment Mean [3, 9]: 790.1 g | DNA, % Increase, (A-B)/B [3, 8]: 6.4% | DNA, Mean Increase (A-B) [3, 8]: 131 mg | Dry Fat-Free Weight, % Increase, (A-B)/B [3, 8]: 3.6% | Dry Fat-Free Weight, Mean Increase (A-B) [3, 8]: 5.2 g | Dry Weight, % Increase, (A-B)/B [3, 8]: 8.9% | Dry Weight, Mean Increase (A-B) [3, 8]: 17.0 g | Wet Weight, % Increase, (A-B)/B [3, 8]: 7.3% | Wet Weight, Mean Increase (A-B) [3, 8]: 53.5 g | DNA, Avg. % Increase/Animal [3, 10]: 15.8% | Dry Fat-Free Weight, Avg. % Increase/Animal [3, 10]: 7.8% | Dry Weight, Avg. % Increase/Animal [3, 10]: 10.7% | Wet Weight, Avg. % Increase/Animal [3, 10]: 13.4% | DNA, Treatment Mean [3, 11]: 1371 mg | Dry Fat-Free Weight, Treatment Mean [3, 11]: 49.5 g | Dry Weight, Treatment Mean [3, 11]: 96.4 g | Wet Weight, Treatment Mean [3, 11]: 396.9 g | DNA, % Increase, (A-B)/B [3, 10]: 5.5% | DNA, Mean Increase (A-B) [3, 10]: 72 mg | Dry Fat-Free Weight, % Increase, (A-B)/B [3, 10]: 10.5% | Dry Fat-Free Weight, Mean Increase (A-B) [3, 10]: 4.7 g | Dry Weight, % Increase, (A-B)/B [3, 10]: 13.3% | Dry Weight, Mean Increase (A-B) [3, 10]: 11.3 g | Wet Weight, % Increase, (A-B)/B [3, 10]: 14.9% | Wet Weight, Mean Increase (A-B) [3, 10]: 51.5 g
